# Reference: FireProtDB (doi:10.1016/j.jmb.2005.09.061)
# “And” between values parts separate entries of the source, which are not always exact repeats. Equal entries are not always repeated.
# B1: Alpha-lactalbumin, P00712 (parent)
# chain: MMSFVSLLLVGILFHATQAEQLTKCEVFQKLKDLKDYGGVSLPEWVCTAFHTSGYDTQAIVQNNDSTEYGLFQINNKIWCKDDQNPHSRNICNISCDKFLDDDLTDDIVCAKKILDKVGINYWLAHKALCSEKLDQWLCEKL
# Variants of: B1
# Settings: Capra hircus; pH 7; Thermal; CD; sodium cacodylate 50 mM; NaCl 50 mM; reversible: Yes; structure 1HFY; whole UniProt chain shown
Variant,Tm,"change of melting temperature, mutant - wild type (higher = more stable)",heat capacity change of unfolding,unfolding enthalpy (van 't Hoff)
MMSFVSLLLVGILFHATQAEQLTKCEVFQKLKDLKDYGGVSLPEWVCTAFHTSGYDAQAIVQNNDSTEYGLFQINNKIWCKDDQNPHSRNICNISCDKFLDDDLTDDIVCAKKILDKVGINYWLAHKALCSEKLDQWLCEKL,59 °C and 54.1 °C,-6.8 °C and -4.9 °C,1.8 kcal/mol/K,68.8 kcal/mol and 62.5 kcal/mol
